{"source": "patent US20200231668A1", "about": "(INTRINSIC LIFESCIENCES, published 2020)", "binders": {"B1": {"name": "monoclonal antibody 17A5 (ATCC Accession Number PTA-123883) (antibody, mouse IgG1, kappa, V domains shown)", "VH": "QVQLQQPGSVLVRPGASVKLSCKASGYTFTSYWMHWAKQRPGQGLEWIGEIHPKSGDTNHNEKFKGKATLTVDTSSNTAYVDLSSLTSEDSAVYYCAREGITTVGFDLWGAGTTVTVSS", "VL": "QIVLTQSPAIMSASPGQKVTLTCSASSSVSYMNWVQQKSGTSPKRWIYDTSKLASGVPARFSGSGSGTSYSLTISSVEAEDAATYYCQQWSSHPYTFGGGTKLEIKR", "notes": "Mouse IgG1 from hybridoma; Biotinylated when used as detection antibody"}, "B2": {"name": "monoclonal antibody 9B12 (ATCC Accession Number PTA-123882) (antibody, mouse IgG1, kappa, V domains shown)", "VH": "QVQLQQSGPELVKPGASVRISCKASGYTFTSYYIHWVKQRPGQGLEWIAWIYPGNVNTEYNEKFKGKATLTADESSSTAYMQLSSLTSEDSAVFFCAREGITTNALDYWGQGTSVTVSS", "VL": "DIQMTQTTSSLSASLGDRVTISCRASQDISNYLNWYQQKPDGTVKLLIYYTSRLYSGVPSRFSGNGSGSDYSLTISNLEQEDIATYFCQQGHTLWTFGGGTKLEIKR", "notes": "as for B1"}}, "key": {"[1]": {"target": "T1, recombinant human erythroferrone (ERFE) (human, UniProt Q4G0M1 29-354)", "T1 construct": "Secreted from transfected HEK293F cells and purified from the supernatant; also called human ERFE; hERFE", "T1 sequence": "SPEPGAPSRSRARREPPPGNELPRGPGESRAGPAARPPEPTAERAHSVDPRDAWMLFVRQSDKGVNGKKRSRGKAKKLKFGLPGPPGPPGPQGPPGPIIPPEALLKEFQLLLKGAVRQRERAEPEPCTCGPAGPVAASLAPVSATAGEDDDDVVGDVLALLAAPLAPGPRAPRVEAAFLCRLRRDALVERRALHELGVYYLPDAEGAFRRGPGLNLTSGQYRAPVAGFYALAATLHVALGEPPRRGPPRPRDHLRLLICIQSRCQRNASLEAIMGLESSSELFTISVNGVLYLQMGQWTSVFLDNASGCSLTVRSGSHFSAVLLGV", "experiment": "sandwich ELISA, biotinylated detection antibody (also used as coating antibody); coating antibodies 7H4, 17A5, 4C1"}, "[2]": {"target": "T1, recombinant human erythroferrone (ERFE)", "experiment": "sandwich ELISA, biotinylated detection antibody; coating antibodies 7H4, 17A5, 4C1"}}, "data": [{"binder": "B1", "values": [{"measurement": "binding result", "setting": "[1]", "value": "binds"}]}, {"binder": "B2", "values": [{"measurement": "binding result", "setting": "[2]", "value": "binds"}]}]}
